{"source": "patent US20260049115A1", "about": "(UNIVERSITY OF CHICAGO, published 2026)", "key": {"collagen type III [1]": {"biological_target": "T1, collagen type III", "T1 construct": "Bought protein; also called collagen III; type III collagen", "T1 sequence (P02461 154-1221)": "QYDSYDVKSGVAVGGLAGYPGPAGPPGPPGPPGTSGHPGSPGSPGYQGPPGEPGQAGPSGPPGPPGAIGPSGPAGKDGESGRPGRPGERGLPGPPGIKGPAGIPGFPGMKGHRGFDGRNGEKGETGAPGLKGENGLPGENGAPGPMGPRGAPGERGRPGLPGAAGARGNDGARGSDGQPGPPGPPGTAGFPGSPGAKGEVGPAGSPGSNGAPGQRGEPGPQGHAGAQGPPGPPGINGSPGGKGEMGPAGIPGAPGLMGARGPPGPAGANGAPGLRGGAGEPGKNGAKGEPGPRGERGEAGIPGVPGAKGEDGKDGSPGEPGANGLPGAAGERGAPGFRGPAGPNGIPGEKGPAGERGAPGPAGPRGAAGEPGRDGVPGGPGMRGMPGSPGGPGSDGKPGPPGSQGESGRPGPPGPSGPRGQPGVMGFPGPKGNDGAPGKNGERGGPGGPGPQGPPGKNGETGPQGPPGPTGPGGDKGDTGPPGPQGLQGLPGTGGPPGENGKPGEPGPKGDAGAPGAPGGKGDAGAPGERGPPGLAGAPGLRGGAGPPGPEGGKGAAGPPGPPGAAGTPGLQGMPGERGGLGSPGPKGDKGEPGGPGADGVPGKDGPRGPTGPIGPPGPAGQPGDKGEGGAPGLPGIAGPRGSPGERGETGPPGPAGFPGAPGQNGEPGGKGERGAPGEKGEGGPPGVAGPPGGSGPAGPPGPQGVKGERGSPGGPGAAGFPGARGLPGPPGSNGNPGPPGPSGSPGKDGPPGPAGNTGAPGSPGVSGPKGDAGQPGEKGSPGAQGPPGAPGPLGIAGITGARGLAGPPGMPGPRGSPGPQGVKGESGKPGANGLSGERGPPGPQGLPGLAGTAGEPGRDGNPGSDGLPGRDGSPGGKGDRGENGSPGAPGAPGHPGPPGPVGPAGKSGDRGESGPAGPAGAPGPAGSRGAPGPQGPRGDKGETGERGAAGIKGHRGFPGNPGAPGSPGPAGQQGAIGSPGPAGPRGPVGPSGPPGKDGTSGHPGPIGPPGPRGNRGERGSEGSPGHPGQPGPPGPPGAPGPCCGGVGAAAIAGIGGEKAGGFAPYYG", "experiment": "SPR, collagen III immobilised on the chip, CBD-CCL4 flowed at 15.6 to 500 nM, 1:1 Langmuir fit [panel C]", "method": "(§1) FIGS. 6A-6D. CBD-CCL4 fusion protein binds to collagen I and collagen III and maintains its activity. (A) WT CCL4 and CBD-CCL4 were analyzed by SDS-PAGE followed by Coomassie blue staining. (B,C) Affinity of CBD-CCL4 against (B) collagen I and (C) collagen III was measured by SPR. SPR chips were functionalized with collagen I (˜500 RU) and collagen III (˜700 RU), and the CBD-CCL4 was flowed over the chips at indicated concentrations. Curves represent the obtained specific responses (in resonance units (RU)) to CBD-CCL4. Experimental curves were fitted with 1:1 Langmuir fit model. Binding kinetics values [dissociation constants (KD) and rate constants (kₒₙ and koff)] determined from the fitted curves are shown. (D) GPCR activation assay comparing signaling of WT CCL4 and CBD-CCL4 in ThP1 monocytes. EC₅₀ values were calculated using a non-linear dose-response curve fit model. Each point represents mean±SEM, n=3.\n(§2) CBD-CCL4 collagen binding measurements using SPR. SPR measurements were made with a Biacore X100 SPR system™ (GE Healthcare). Collagen I or collagen III was immobilized via amine coupling on a CM5 chip (GE Healthcare) for ˜1000 resonance units (RU) according to the manufacturer's instructions. […] Specific binding of CBD-CCL4 to collagen was calculated automatically using the response to a non-functionalized channel as a reference. […]"}, "collagen type I [2]": {"biological_target": "T2, collagen type I", "T2 construct": "Bought protein; also called collagen I; type I collagen", "experiment": "SPR, collagen I immobilised on the chip, CBD-CCL4 flowed at 15.6 to 500 nM, 1:1 Langmuir fit [panel B]", "method": "as §1, §2"}, "[3]": {"biological_target": "CCR5 on ThP1 human monocytes (human, UniProt P51681 1-352)", "sequence (P51681 whole entry)": "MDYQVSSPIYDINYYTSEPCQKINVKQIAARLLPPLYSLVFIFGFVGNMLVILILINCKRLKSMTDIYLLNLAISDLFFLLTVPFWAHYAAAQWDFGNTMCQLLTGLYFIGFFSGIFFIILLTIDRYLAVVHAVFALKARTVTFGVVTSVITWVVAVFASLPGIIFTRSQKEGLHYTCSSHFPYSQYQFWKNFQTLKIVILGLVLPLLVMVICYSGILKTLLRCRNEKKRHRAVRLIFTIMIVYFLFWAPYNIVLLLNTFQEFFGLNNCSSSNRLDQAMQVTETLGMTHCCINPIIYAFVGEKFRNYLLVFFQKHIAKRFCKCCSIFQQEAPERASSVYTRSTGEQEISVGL", "experiment": "cell-based or functional assay"}, "collagen type III [4]": {"biological_target": "T1, collagen type III", "experiment": "SPR (Biacore X100), collagen III on CM5 chip, 1:1 Langmuir fit", "method": "as §1, §2"}, "collagen type I [5]": {"biological_target": "T2, collagen type I", "experiment": "SPR (Biacore X100), collagen I on CM5 chip, 1:1 Langmuir fit", "method": "as §1, §2"}, "collagen type I [6]": {"biological_target": "T2, collagen type I", "experiment": "ELISA on plates coated with collagen I; apparent KD by nonlinear regression, one-site specific binding [panel C]", "method": "(§3) Detection of CBD-IL-2 binding to collagen proteins. The measurement is performed as described previously (Ishihara et al., Sci Transl Med 9:doi:10.1126/scitranslmed.aan0401, 2017). 96-well ELISA plates (Greiner Bio One) were coated with 10 μg/mL collagen I (EMD Millipore), collagen III (EMD Millipore), or 1 μg/mL recombinant mouse IL-2Rα (SinoBiological) in PBS for 1 h at 37° C., followed by blocking with 2% BSA in PBS with 0.05% Tween 20 (PBS-T) for 1 hr at RT. Then, wells were washed with PBS-T and further incubated with 10 μg/mL CBD- or unmodified-IL-2 for 1 hr at RT. After 3 washes with PBS-T, wells were incubated for 1 hr at RT with HRP-conjugated antibody against rat IgG (Jackson ImmunoResearch). After washes, bound CBD-IL2 and IL-2 were detected with tetramethylbenzidine substrate by measurement of the absorbance at 450 nm with subtraction of 570 nm. The apparent dissociation constant (KD) values were obtained by nonlinear regression analysis in Prism software (v7, GraphPad Software) assuming one-site specific binding."}, "recombinant mouse IL-2Rα": {"biological_target": "T3, recombinant mouse IL-2Rα (mouse, UniProt P01590 22-236, limits assumed)", "T3 construct": "Bought recombinant protein; also called rm IL-2Rα", "T3 sequence (looked up)": "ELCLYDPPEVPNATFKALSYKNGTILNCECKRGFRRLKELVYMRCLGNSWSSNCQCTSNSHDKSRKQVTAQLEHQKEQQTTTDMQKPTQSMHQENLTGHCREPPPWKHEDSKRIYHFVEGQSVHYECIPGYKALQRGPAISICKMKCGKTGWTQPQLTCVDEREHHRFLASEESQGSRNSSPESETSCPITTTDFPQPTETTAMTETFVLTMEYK", "experiment": "ELISA on plates coated with recombinant mouse IL-2Rα; apparent KD by nonlinear regression, one-site specific binding [panel C]", "method": "as §3"}, "collagen type III [7]": {"biological_target": "T1, collagen type III", "experiment": "ELISA on plates coated with collagen III; apparent KD by nonlinear regression, one-site specific binding [panel C]", "method": "as §3"}}}
{"binder": "CBD-CCL4 (human vWF A3 domain and murine CCL4 fusion protein) (other, also called CBD-CCL4 fusion protein; vWF A3 domain-CCL4 fusion protein) CSQPLDVILLLDGSSSFPASYFDEMKSFAKAFISKANIGPRLTQVSVLQYGSITTIDVPWNVVPEKAHLLSLVDVMQREGGPSQIGDALGFAVRYLTSEMHGARPGASKAVVILVTDVSVDSVDAAADAARSNRVTVFPIGIGDRYDAAQLRILAGPAGDSNVVKLQRIEDLPTMVTLGNSFLHKLCSGFVRIGGGGSGGGGSAPMGSDPPTSCCFSYTSRQLHRSFVMDYYETSSLCSKPAVVFLTKRGRQICANPSEPWVTEYMSDLELNHHHHHH", "values": [{"measurement": "koff", "setting": "collagen type III [1]", "value": 0.0078, "unit": "s⁻¹"}, {"measurement": "kon", "setting": "collagen type III [1]", "value": 540000, "unit": "M⁻¹ s⁻¹"}, {"measurement": "koff", "setting": "collagen type I [2]", "value": 0.0031, "unit": "s⁻¹"}, {"measurement": "kon", "setting": "collagen type I [2]", "value": 95000, "unit": "M⁻¹ s⁻¹"}, {"measurement": "EC50, calcium flux (RFU) in ThP1 monocytes [panel D]", "setting": "[3]", "value": 7, "unit": "nM"}, {"measurement": "Kd", "setting": "collagen type III [4]", "value": 14.5, "unit": "nM"}, {"measurement": "Kd", "setting": "collagen type I [5]", "value": 33.4, "unit": "nM"}]}
{"binder": "CBD-fused IL-2 recombinant protein (the vWF A3 domain and mouse IL-2 fusion protein) (other, also called CBD-IL-2) CSQPLDVILLLDGSSSFPASYFDEMKSFAKAFISKANIGPRLTQVSVLQYGSITTIDVPWNVVPEKAHLLSLVDVMQREGGPSQIGDALGFAVRYLTSEMHGARPGASKAVVILVTDVSVDSVDAAADAARSNRVTVFPIGIGDRYDAAQLRILAGPAGDSNVVKLQRIEDLPTMVTLGNSFLHKLCSGFVRIGGGSGGGSPTSSSTSSSTAEAQQQQQQQQQQQQHLEQLLMDLQELLSRMENYRNLKLPRMLTFKFYLPKQATELKDLQCLEDELGPLRHVLDLTQSKSFQLEDAENFISNIRVTVVKLKGSDNTFECQFDDESATVVDFLRRWIAFCQSIISTSPQ", "values": [{"measurement": "Kd", "setting": "collagen type I [6]", "value": 268, "unit": "nM"}, {"measurement": "Kd", "setting": "recombinant mouse IL-2Rα", "value": 54.7, "unit": "nM"}, {"measurement": "Kd", "setting": "collagen type III [7]", "value": 181, "unit": "nM"}]}
{"binder": "wild-type mouse IL-2 (His-tagged) (ligand, The entry includes the C-terminal 6xHis tag as printed; also called wild-type IL-2; unmodified-IL-2) PTSSSTSSSTAEAQQQQQQQQQQQQHLEQLLMDLQELLSRMENYRNLKLPRMLTFKFYLPKQATELKDLQCLEDELGPLRHVLDLTQSKSFQLEDAENFISNIRVTVVKLKGSDNTFECQFDDESATVVDFLRRWIAFCQSIISTSPQ", "values": [{"measurement": "Kd", "setting": "recombinant mouse IL-2Rα", "value": 60, "unit": "nM"}]}
